Test results from patent publication US20250382384A1 (BEONE MEDICINES I, published 2025).
Numbering of substitutions follows the chain as printed.

Assays:
[1] = molecular target: T1, MUC1-SEA-mIgG2a (human; mouse, UniProt P15941 1036-1155); assay: SPR (Biacore 8K, 25 C), MUC1-SEA-mIgG2a captured by anti-mouse Fc, scFv analyte
T1 construct: also called huMUC1-SEA-mIgG2a; human MUC1-mFc; not shown: Fc domain of mouse IgG2a fused to the C-terminus of the SEA domain
T1 sequence: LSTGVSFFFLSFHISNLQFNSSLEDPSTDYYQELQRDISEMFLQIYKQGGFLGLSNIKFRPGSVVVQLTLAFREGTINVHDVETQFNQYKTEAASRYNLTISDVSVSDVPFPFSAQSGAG

[2] = molecular target: T2, full-length human MUC1 on stably transfected cells (human, UniProt P15941 24-1255); assay: FACS on HEK293-MUC1 cells, anti-His detection
T2 construct: also called HEK293/human MUC1; HEK293-hMUC1
T2 sequence (P15941 24-1255 limits assumed): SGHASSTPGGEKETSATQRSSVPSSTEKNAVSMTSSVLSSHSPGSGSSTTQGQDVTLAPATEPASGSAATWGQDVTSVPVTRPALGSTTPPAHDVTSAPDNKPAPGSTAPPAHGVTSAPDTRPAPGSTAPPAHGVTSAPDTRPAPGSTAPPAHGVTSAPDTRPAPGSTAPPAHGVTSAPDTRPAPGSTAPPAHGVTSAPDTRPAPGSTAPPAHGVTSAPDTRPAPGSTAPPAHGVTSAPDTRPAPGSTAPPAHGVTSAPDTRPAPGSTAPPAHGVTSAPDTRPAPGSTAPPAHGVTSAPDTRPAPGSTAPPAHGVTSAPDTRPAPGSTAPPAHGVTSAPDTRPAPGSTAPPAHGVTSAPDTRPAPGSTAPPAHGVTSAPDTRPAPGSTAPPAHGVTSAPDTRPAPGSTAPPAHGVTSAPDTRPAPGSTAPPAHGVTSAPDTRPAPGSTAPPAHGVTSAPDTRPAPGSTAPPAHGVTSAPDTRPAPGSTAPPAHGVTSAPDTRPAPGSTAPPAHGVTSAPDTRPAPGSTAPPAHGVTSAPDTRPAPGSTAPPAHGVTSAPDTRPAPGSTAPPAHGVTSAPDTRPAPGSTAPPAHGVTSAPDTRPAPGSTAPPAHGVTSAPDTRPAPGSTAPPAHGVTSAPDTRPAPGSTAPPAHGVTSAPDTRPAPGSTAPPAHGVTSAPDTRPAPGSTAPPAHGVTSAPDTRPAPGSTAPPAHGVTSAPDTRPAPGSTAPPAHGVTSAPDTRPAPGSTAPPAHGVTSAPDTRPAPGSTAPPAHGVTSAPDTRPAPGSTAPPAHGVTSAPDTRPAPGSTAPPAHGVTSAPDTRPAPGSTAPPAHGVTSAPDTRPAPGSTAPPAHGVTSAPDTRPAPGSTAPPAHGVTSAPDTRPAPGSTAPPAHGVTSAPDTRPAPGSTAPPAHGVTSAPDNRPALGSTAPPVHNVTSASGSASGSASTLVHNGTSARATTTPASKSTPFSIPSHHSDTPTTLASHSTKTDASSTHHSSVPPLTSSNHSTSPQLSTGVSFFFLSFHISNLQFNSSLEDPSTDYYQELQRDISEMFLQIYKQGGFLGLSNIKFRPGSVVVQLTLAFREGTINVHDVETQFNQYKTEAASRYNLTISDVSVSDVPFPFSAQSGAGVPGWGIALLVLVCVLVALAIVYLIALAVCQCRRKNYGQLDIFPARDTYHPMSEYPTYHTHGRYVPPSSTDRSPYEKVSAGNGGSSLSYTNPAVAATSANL

[3] = molecular target: T2, full-length human MUC1 on stably …; assay: FACS (iQue3) on HEK293-hMUC1 cells
[4] = molecular target: T3, native human MUC1 on tumour cell lines (human, UniProt P15941 24-1255); assay: FACS on live ZR-75 cells
T3 construct: whole, on cells; also called native MUC1; ZR-75
T3 sequence (P15941 24-1255): as the sequence (P15941 24-1255 limits assumed) above

B1: scFv3-20P (scFv)
scFv: QVQLVQSGAEVKKPGASVKVSCKASGYTFTNYWINWVRQAPGQGLEWMGEIDPSDAYTNNNQKFQGRVTMTVDTSTSTAYMELSSLRSEDTAVYYCARGRRTGFAYWGQGTLVTVSSGGGGSGGGGSGGGGSGGGGSDIQMTQSPSSLSASVGDRVTITCRASENIYSNLAWYQQKPGKAPKLLIYAATNLADGVPSRFSGSGSGTDYTLTISSLQPEDFATYYCQHFWGTPYTFGQGTKLEIKHHHHHH
notes: Humanized BG346P scFv; His tag from the stated format of the BG346P scFv constructs; also called BG346P-scFv3-20P
- Kd [1]: 67.1 nM
- koff [1]: 0.0202 s⁻¹
- kon [1]: 301000 M⁻¹ s⁻¹
- EC50 [2]: 16.1 nM

B2: huBG138P-Hz1 (antibody, V domains shown)
VH: QVQLVQSGAEVKKPGASVKVSCKASGYTFTTYTMHWVRQAPGQRLEWMGYINPGSDYTHYNQKFKDRVTITADTSASTAYMELSSLRSEDTAVYYCARQGNYAAYYFDYWGQGTLVTVSS
VL: DIQMTQSPSSLSASVGDRVTITCRASGNIHNFLVWYQQKPGKVPKLLIYNAKTLTSGVPSRFSGSGSGTDYTLTISSLQPEDVATYYCQNFWNVPFTFGQGTKLEIK
notes: humanized; constant regions not restated (IgG1/Ckappa vector used for the first round)
- EC50 (read off the curve) [3]: ~5 nM

B3: huBG138P-Hz4 (antibody, V domains shown)
VH: B2 VH with R44G, T74K
VL: B2 VL with V43S, D70Q
notes: humanized; constant regions not restated
- EC50 (read off the curve) [3]: ~3 nM

B4: huBG138P-Hz3 (antibody, V domains shown)
VH: B2 VH with R44G, T74K
VL: B2 VL
notes: as for B3
- EC50 (read off the curve) [3]: ~5 nM

B5: huBG219P-Bz0 (antibody, IgG1, V domains shown)
VH: EVQLLESGGGLVQPGGSLRLSCAASGFTFNDYIMSWVRQAPGKGLEWVATVSSGGDNTYYPDSVKGRFTISRDNSKNTLYLQMNSLRAEDTAVYYCTRYGGLGAMDYWGQGTLVTVSS
VL: DIQMTQSPSSLSASVGERVTITCRASGNIHNYLTWYQQKPGKSPKLLVYNAKTLADGVPSRFSGSGSGPDYTLTISSLQPEDFATYYCQHFWSVPYTFGQGTKLEIK
notes: human wild-type IgG1 / kappa
- EC50 [4]: 20.9 nM
